# ± gives the uncertainty stated by the source.
# B1: Max-interacting protein 1, residues 70 to 120; numbered along this chain, P50539 (parent)
# chain: STHNELEKNRRAHLRLCLERLKVLIPLGPDCTRHTTLGLLNKAKAHIKKLE
# Variants of: B1
# Experiment: abundance fitness (aPCA) (normalised: wild type 0, dead -1); higher = more abundant; growth selection in yeast, the domain comes from the species named
# Conditions: Homo sapiens
row,Variant,abundance fitness
1,SWHNELEKNRRAHLRLCLERLKVLIPLGPDCTRHTTLGLLNKAKAHIKKLE,-0.836 ± 0.19
2,SSHNELEKNRRAHLRLCLERLKVLIPLGPDCTRHTTLGLLNKAKAHIKKLE,-0.414 ± 0.074
3,SGHNELEKNRRAHLRLCLERLKVLIPLGPDCTRHTTLGLLNKAKAHIKKLE,-0.69 ± 0.12
4,SMHNELEKNRRAHLRLCLERLKVLIPLGPDCTRHTTLGLLNKAKAHIKKLE,-0.63 ± 0.098
5,STHNELEKNRRAHLRLCLERLKVLIPLGPDCTRHTILGLLNKAKAHIKKLE,-0.028 ± 0.12
6,STHNELEKNRRAHLRLCLERLKVLIPLGPDCTRHTFLGLLNKAKAHIKKLE,0.155 ± 0.13
7,STHNELGKNRRAHLRLCLERLKVLIPLGPDCTRHTTLGLLNKAKAHIKKLE,-0.099 ± 0.081
8,STHNELWKNRRAHLRLCLERLKVLIPLGPDCTRHTTLGLLNKAKAHIKKLE,-0.004 ± 0.11
9,STHNELMKNRRAHLRLCLERLKVLIPLGPDCTRHTTLGLLNKAKAHIKKLE,-0.173 ± 0.12
10,STHNELEKNRRAHLRLCLERLKVLIPMGPDCTRHTTLGLLNKAKAHIKKLE,-0.031 ± 0.12
11,STHNELEKNRRAHLRLCLERLKVLIPLGPDCTRHTTLGLHNKAKAHIKKLE,-0.86 ± 0.32
12,STHNELEKNRRAHLRLCLERLKVLIPLGPDCTRYTTLGLLNKAKAHIKKLE,-0.406 ± 0.15
13,STHNELEKNRRAHLRLCLERLKVLIPLGPDCTRDTTLGLLNKAKAHIKKLE,-0.457 ± 0.12
14,STHNELEKNRRAHLRLCLERLPVLIPLGPDCTRHTTLGLLNKAKAHIKKLE,-0.757 ± 0.15
15,STHNELEKNRRAHLRLCLERLKGLIPLGPDCTRHTTLGLLNKAKAHIKKLE,0.355 ± 0.084
16,STHNELEKNRRAHLRLCLERLKMLIPLGPDCTRHTTLGLLNKAKAHIKKLE,0.064 ± 0.11
17,STHNELEKNRRAHLRLCLERLKSLIPLGPDCTRHTTLGLLNKAKAHIKKLE,0.317 ± 0.093
18,STHNELEKNRRAHLRLCLERLKNLIPLGPDCTRHTTLGLLNKAKAHIKKLE,0.313 ± 0.2
19,STHNELEKNRRAHLRRCLERLKVLIPLGPDCTRHTTLGLLNKAKAHIKKLE,0.165 ± 0.089
20,STHNELEKNRRAHLRLCLERLKVLIPLGPDCTRHTTLGLLNKAKATIKKLE,0.154 ± 0.14
21,STHNELEKNRRAHLRLCLERLKVLIPLGPDCTRHTTLGLLNKAKAWIKKLE,0.216 ± 0.085
22,STHNELEKNRRAHLRLCLERLKVLIPLGPDCTRHTTLGLLNKAKAGIKKLE,0.108 ± 0.077
23,STHNELEKNRRAHLRLCLERLKVLIPLGPDCTRHTTLGLLNKAKAFIKKLE,-0.456 ± 0.18
24,STHNELEKNRRAHLRLCLERLKVLIPLGPDCTRHTTLGLLNKAKAVIKKLE,0.116 ± 0.097
25,STHNELEKNRRAHLRLCLERLKVLIPLGPDCTRHTTLGLLNKAKAQIKKLE,0.305 ± 0.11
26,STHNELEKNRRAHLRLCLERLKVLYPLGPDCTRHTTLGLLNKAKAHIKKLE,-0.309 ± 0.16

row,Variant,abundance fitness
1,STHNELEKNRRAHLRLCLERLKVLIPLGPDCTRHTTLGLLNKAKAHIKKDE,-0.423 ± 0.17
2,STHNELEKNRRAHLRLCLERLKVLIPLGPDCTRHHTLGLLNKAKAHIKKLE,-0.023 ± 0.14
3,STHNELEKNRRAHLRLCLERLKVLIPLGPDCTRHLTLGLLNKAKAHIKKLE,-0.017 ± 0.092
4,STHNELEKNRRAHLRLCLERLKVLIPLGPDCTRHDTLGLLNKAKAHIKKLE,-0.377 ± 0.14
5,STHNELEKNRRAHLRLCLERLKVLIPLGPDCTRHYTLGLLNKAKAHIKKLE,0.279 ± 0.15
6,STHNELEKNRRAHLRLCLERLKVLIPLGPDCTRHTTLGLLNDAKAHIKKLE,-0.992 ± 0.18
7,STHNELEKNRRAHLRLCLERLKVLIPLGPDCTRHTTLGLLNHAKAHIKKLE,-0.813 ± 0.19
8,STHNELEKNRRAHLRLCLERLKVLIPLWPDCTRHTTLGLLNKAKAHIKKLE,0.199 ± 0.11
9,STHNELEKNRRAHLRLCLERLKVLIPLFPDCTRHTTLGLLNKAKAHIKKLE,0.069 ± 0.19
10,STHNELEKNRRAHLRLCLERLKVLIPLRPDCTRHTTLGLLNKAKAHIKKLE,0.122 ± 0.083
11,STHEELEKNRRAHLRLCLERLKVLIPLGPDCTRHTTLGLLNKAKAHIKKLE,-0.142 ± 0.17
12,STHGELEKNRRAHLRLCLERLKVLIPLGPDCTRHTTLGLLNKAKAHIKKLE,-0.223 ± 0.1
13,STHCELEKNRRAHLRLCLERLKVLIPLGPDCTRHTTLGLLNKAKAHIKKLE,-0.33 ± 0.13
14,STHYELEKNRRAHLRLCLERLKVLIPLGPDCTRHTTLGLLNKAKAHIKKLE,-0.547 ± 0.14
15,STHTELEKNRRAHLRLCLERLKVLIPLGPDCTRHTTLGLLNKAKAHIKKLE,0.135 ± 0.13
16,STHNFLEKNRRAHLRLCLERLKVLIPLGPDCTRHTTLGLLNKAKAHIKKLE,-0.514 ± 0.29
17,STHNKLEKNRRAHLRLCLERLKVLIPLGPDCTRHTTLGLLNKAKAHIKKLE,-0.232 ± 0.17
18,STHNELEKNRRAHLRLCLERLKVLIPLGPDCTRHTTLGLLNKAKAHIRKLE,-0.288 ± 0.087
19,STHNELEKNRRAHLRLCLERLKVLIPLGPDCTRHTTLGLLNKAKAHIYKLE,0.026 ± 0.22
20,STHNELEKNRRAHLRLCLEREKVLIPLGPDCTRHTTLGLLNKAKAHIKKLE,-0.931 ± 0.18
21,STHNELEKNRRAHLRLCLERTKVLIPLGPDCTRHTTLGLLNKAKAHIKKLE,-0.832 ± 0.17
22,STHNELEKNRRAHLRLCLERLKVLIPLGPDCTRHTTLGLLNKAKAHIKKLA,0.495 ± 0.15
23,STHNELEKNRRAHLRLCLERLKVLIPLGPDCTRHTTLGLLNKAKMHIKKLE,-0.276 ± 0.12
24,STHNELEKNRRAHLRLCLERLKVLIILGPDCTRHTTLGLLNKAKAHIKKLE,-1.18 ± 0.24
25,STHNELEKNRRAHLRLCLERLKVLIWLGPDCTRHTTLGLLNKAKAHIKKLE,-0.525 ± 0.11

# Source: the Human Domainome abundance scans (Beltran et al. 2025)
